± gives the standard deviation of the averaged measurements. A value given as a limit tells only on which side of the number the result lay.

Data set [1] relates to VchCAST RNA-guided transposition machinery (E. coli BL21(DE3) host, lacZ target). The data set can be described thus: relative integration efficiency (T-RL orientation) vs wild-type transposon end (log2 (normalized fold change)); transposon end mutated: left end; higher = more efficient transposition. The procedure, abridged: (§1)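 Each barcoded pool, 1549 left-end or 1849 right-end transposon variants in a pUC57 mini-transposon donor, went into E. coli BL21(DE3) with a T7-driven effector plasmid (CRISPR array, tniQ-cas8-cas7-cas6, tnsA-tnsB-tnsC). Plates contained 0.1 mM IPTG and were held at 37°C for 18 h. Input plasmids and genomic integration junctions were PCR-amplified and read by Illumina sequencing, with two biological output replicates and four reference barcodes. Relative integration efficiency is the fold change of output over input barcode abundance, normalised to the reference barcodes and log-transformed.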

For data set [2] the test system is unchanged. Kind of data set: relative integration efficiency (T-LR orientation) vs wild-type transposon end (log2 (normalized fold change)); transposon end mutated: left end; higher = more efficient transposition. In a few lines:
as §1

“AATGTTGTTGATGCACCCATAAATTGATAATTAATAATTATTTATAATCAGCAACTTAACCACAAAACACCCATAAATTGATAATTAACAAAAGTTGGTATTCAACTATAAAATGTGAATCGAGTATTTCAGCAAAACTACTGCAGTAAGAA”: the “relative integration efficiency (log2)” value in data set [1] was -2.87 ± 0.73; in data set [2] it was -1.11 ± 1.5.
On to “AATGTTGTTGATGCACCCATAAATTGATAATTAATAATTATTTATAATCAGCAACTTAACCACAAAACACCCATAAATTGATATTGCACAAAAGTTGGTATTCAACTATAAAATGTGAATCGAGTATTTCAGCAAAACTACTGCAGTAAGAA”, for which the “relative integration efficiency (log2)” value was -3.68 ± 1.4 in data set [1] and -1.72 ± 0.67 in data set [2].
Regarding “AATGTTGTTGATGCACCCATAAATTGATATTGCATAATTATTTATAATCAGCAACTTAACCACAAAACAACCATAAAATGATAATTAACAAAAGTTGGTATTCAACTATAAAATGTGAATCGAGTATTTCAGCAAAACTACTGCAGTAAGAA”, the “relative integration efficiency (log2)” value in data set [1] is -3.11 ± 1.5; in data set [2], -1.26 ± 0.57.
The like results for “AATGTTGTTGATGCACCCATAAATTGATATTGCATAATTATTTATAATCAGCAACTTAACCACAAAACAACCATAAAGTGATATTTAACAAAAGTTGGTATTCAACTATAAAATGTGAATCGAGTATTTCAGCAAAACTACTGCAGTAAGAA” were, in that order, -3.26 ± 1 and -1.73 ± 0.93.
The corresponding values for “AATGTTGTTGATGCACCCATAAATTGATATTGCATAATTATTTATAATCAGCAACTTAACCACAAAACAACCATAAGTTGATATTTTACAAAAGTTGGTATTCAACTATAAAATGTGAATCGAGTATTTCAGCAAAACTACTGCAGTAAGAA” are -3.46 ± 1.6 and -1.34 ± 1.4.
Turning to “AATGTTGTTGATGCACCCATAAATTGATATTGCATAATTATTTATAATCAGCAACTTAACCACAAAACAACCATATATTGATATCTCACAAAAGTTGGTATTCAACTATAAAATGTGAATCGAGTATTTCAGCAAAACTACTGCAGTAAGAA”, the “relative integration efficiency (log2)” value is -3.48 ± 0.92 in data set [1] and -1.64 ± 1.3 in data set [2].
The like results for “AATGTTGTTGATGCACCCATAAATTGATATTGCATAATTATTTATAATCAGCAACTTAACCACAAAACACCCATAAATTGATAATTAACAAAAGTTGGTATTCAACTATAAAATGTGAATCGAGTATTTCAGCAAAACTACTGCAGTAAGAA” were, in that order, -3.57 ± 1.4 and -1.55 ± 1.2.
As to “AATGTTGTTGATGCACCCATAAATTGATATTGCATAATTATTTATAATCAGCAACTTAACCACAAAACACCCATAAATTGATATTGCACAAAAGTTGGTATTCAACTATAAAATGTGAATCGAGTATTTCAGCAAAACTACTGCAGTAAGAA”, the “relative integration efficiency (log2)” value in data set [1] was -4.32 ± 0.9; in data set [2], -2.41 ± 2.
“AATGTTGTTGATGGTTGGTATTTCACTATAAATATAATTATTTATAATCAGCAACTTAACCACAAAAGTTGGTATATAACTATAGAGACAAAAGTTGGTATTCAACTATAAAATGTGAATCGAGTATTTCAGCAAAACTACTGCAGTAAGAA”: the “relative integration efficiency (log2)” value in data set [1] was -8.52 ± 0.29; in data set [2], less than -10.
For “AATGTTGTTGATGTAATTATCATTTTATGGTTGATAATTATTTATAATCAGCAACTTAACCACAAAACAACCATAAAATGATAATTAACAAAATAATTATCATTTTATGGTTGTGTGAATCGAGTATTTCAGCAAAACTACTGCAGTAAGAA”, the “relative integration efficiency (log2)” value in data set [1] is -7.72 ± 0.59; in data set [2] it was less than -10.
The corresponding values for “AATGTTGTTGATGTAATTATCATTTTATGGTTGATAATTATTTATAATCAGCAACTTAACCACAAAACAACCATAAAATGATAATTATTTTGTCAACCATAAAATGATAATTATGTGAATCGAGTATTTCAGCAAAACTACTGCAGTAAGAA” are -8.78 ± 0.35 and less than -10.
The corresponding values for “AATGTTGTTGATGTAATTATCATTTTATGGTTGATAATTATTTATAATCAGCAACTTAACCACAAAATAATTATCATTTTATGGTTGACAAAATAATTATCATTTTATGGTTGTGTGAATCGAGTATTTCAGCAAAACTACTGCAGTAAGAA” are less than -10 and less than -10.
On to “AATGTTGTTGATGTCAACCATAAAGTGATATTTAATAATTATTTATAATCAGCAACTTAACCACAAAACAACCATATATTGATATCTCACAAAACAACCATAAGTTGATATTTTTGTGAATCGAGTATTTCAGCAAAACTACTGCAGTAAGA”, for which the “relative integration efficiency (log2)” value was -0.694 ± 0.2 in data set [1] and -0.718 ± 0.039 in data set [2].
“AATGTTGTTGATGTGCAACCATAAAGTGATATTTAATAATTATTTATAATCAGCAACTTAACCACAAAACAACCATATATTGATATCTCACAAAACAACCATAAGTTGATATTTTTGTGAATCGAGTATTTCAGCAAAACTACTGCAGTAAG”: the “relative integration efficiency (log2)” value in data set [1] was -6.45 ± 0.8; in data set [2], less than -10.
Take “AATGTTGTTGATGTGTCAACCATAAAGTGATATTTAATAATTATTTATAATCAGCAACTTAACCACAAAACAACCATATATTGATATCTCACAAAACAACCATAAGTTGATATTTTTGTGAATCGAGTATTTCAGCAAAACTACTGCAGTAA”: the figures for the “relative integration efficiency (log2)” value in data set [1] and in data set [2] were -1.14 ± 0.25 and -2.19 ± 1.3, respectively.
“AATGTTGTTGATGTGTTCAACCATAAAGTGATATTTAATAATTATTTATAATCAGCAACTTAACCACAAAACAACCATATATTGATATCTCACAAAACAACCATAAGTTGATATTTTTGTGAATCGAGTATTTCAGCAAAACTACTGCAGTA”: the “relative integration efficiency (log2)” value in data set [1] was -6.33 ± 0.89; in data set [2], less than -10.
As to “AATGTTGTTGATGTGTTGATGCAACCATAAAGTGATATTTAATAATTATTTATAATCAGCAACTTAACCACAAAACAACCATATATTGATATCTCACAAAACAACCATAAGTTGATATTTTTGTGAATCGAGTATTTCAGCAAAACTACTGC”, the “relative integration efficiency (log2)” value was -0.31 ± 0.015 in data set [1] and -0.829 ± 0.034 in data set [2].
The corresponding values for “AATGTTGTTGATGTGTTGCAACCATAAAGTGATATTTAATAATTATTTATAATCAGCAACTTAACCACAAAACAACCATATATTGATATCTCACAAAACAACCATAAGTTGATATTTTTGTGAATCGAGTATTTCAGCAAAACTACTGCAGT” are -6.86 ± 1.7 and less than -10.
Consider “AATGTTGTTGCAACCATAAAGTGATATTTAATAATTATTTATAATCAGCAACTTAACCACAAAACAACCATATATTGATATCTCACAAAACAACCATAAGTTGATATTTTTGTGAATCGAGTATTTCAGCAAAACTACTGCAGTAAGAAAGT”, for which the “relative integration efficiency (log2)” value was -0.203 ± 0.26 in data set [1] and -1.44 ± 0.11 in data set [2].
The corresponding values for “TTTTGTGTTGAAACAACCATAAAGTGATAACAAATAATTATTTATAATCAGCAACTTAACCACAAAACAACCATATCTTGATATCGCATAAAACAACCATAAGTTGATATTTTGGTGAAAAGGATATTCCAACCTTCATAGTTTAGTAAGAA” are -0.416 ± 0.29 and -1.23 ± 0.8.
The corresponding values for “TTTTGTGTTGAAACAACCATAAAGTGATAACAACGAATCAATTAAAATCATAGGCTTAATCGAAAAACAACCATATATTGATATCTCATAAAACAACCATAAGTTGATATTTTGGTGAAAAGGATATTCCAACCTTCATAGTTTAGTAAGAA” are 0.184 ± 0.29 and 0.0938 ± 0.43.
The like results for “TTTTGTGTTGAAACAACCATAAAGTGATAACAACGAATCAATTAAAATCATAGGCTTAATCGAAAAACAACCATATCTTGATATCGCACAAAACAACCATAAGTTGATATTTTGGTGAAAAGGATATTCCAACCTTCATAGTTTAGTAAGAA” were, in that order, -0.684 ± 0.39 and -0.749 ± 0.52.
For the sequence “TTTTGTGTTGAAACAACCATAAAGTGATAACAACGAATCAATTAAAATCATAGGCTTAATCGAAAAACAACCATATCTTGATATCGCATAAAACAACCATAAGTTGATATTTTGGTGAAAAGGATATTCCAACCTTCATAGTTTAGTAAGAA”, the “relative integration efficiency (log2)” value in data set [1] is -0.363 ± 0.32; in data set [2], -0.599 ± 0.63.
The corresponding values for “TTTTGTGTTGAAACAACCATAAAGTGATAACAACGAATCAATTAAAATCATAGGCTTAATCGAAAAACAACCATATCTTGATATCGCATAAAACAACCATAAGTTGATATTTTGGTGAAACGAGTATTTCAGCAAAACTACTGCAGTAAGAA” are -0.949 ± 0.35 and -1.04 ± 0.28.
The like results for “TTTTGTGTTGAAACAACCATAAAGTGATAACAACGAATCAATTAAAATCATAGGCTTAATCGAAAAACAACCATATCTTGATATCGCATAAAACAACCATAAGTTGATATTTTTGTGAATAGGATATTCCAACCTTCATAGTTTAGTAAGAA” were, in that order, 0.192 ± 0.22 and -0.791 ± 0.29.
Take “TTTTGTGTTGAAACAACCATAAAGTGATATTTACGAATCAATTAAAATCATAGGCTTAATCGAAAAACAACCATATCTTGATATCGCATAAAACAACCATAAGTTGATATTTTGGTGAAAAGGATATTCCAACCTTCATAGTTTAGTAAGAA”: the “relative integration efficiency (log2)” value in data set [1] is 0.179 ± 0.12; in data set [2], -0.00585 ± 0.47.
“TTTTGTGTTGATGCAACCATAAAGTGATAACAACGAATCAATTAAAATCATAGGCTTAATCGAAAAACAACCATATCTTGATATCGCATAAAACAACCATAAGTTGATATTTTGGTGAAAAGGATATTCCAACCTTCATAGTTTAGTAAGAA”: the “relative integration efficiency (log2)” value in data set [1] was -0.528 ± 0.32; in data set [2] it was -0.426 ± 0.46.

The values are drawn from the supplement of paper PMC10201428.
